Data from patent publication US20260035464A1.

Assays:
[1] = molecular target: human BTLA extracellular domain with C-terminal 10xHis tag (human) (UniProt Q7Z6A9); test: BLI (Octet RED96), antibody on AHC biosensor, His-tag-huBTLA in solution
[2] = molecular target: human BTLA extracellular domain with C-terminal 10xHis tag (human) (UniProt Q7Z6A9); test: BLI (Octet RED96), antibody on AHC biosensor, His-tag-huBTLA in solution; column head prints nM, but Koff/Kon shows the values are in M

human BTLA extracellular domain with C-terminal 10xHis tag (human), sequence (Q7Z6A9 other isoform, or with tags, fused parts or gaps): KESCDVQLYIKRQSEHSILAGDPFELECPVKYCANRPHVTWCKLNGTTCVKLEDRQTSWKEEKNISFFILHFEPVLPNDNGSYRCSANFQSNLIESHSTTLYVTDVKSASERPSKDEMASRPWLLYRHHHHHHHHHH

Icatolimab (antibody)
koff [1]: 0.00124 s⁻¹
kon [1]: 621000 M⁻¹ s⁻¹
Kd [2]: 2.09 nM
